Experimental data: patent US20080292632A1 (US Dept. of Health and Human Services, published 2008)

Legend:
[1] = target: T1, IRTA4 extracellular domain-Fc fusion protein (human, UniProt Q96LA5 20-401); assay: IRTA Fc-fusion
T1 construct: Whole entry named; also called IRTA4-Fc; IRTA4 (Fc-fusion); not shown: human IgG1 hinge and Fc
T1 sequence: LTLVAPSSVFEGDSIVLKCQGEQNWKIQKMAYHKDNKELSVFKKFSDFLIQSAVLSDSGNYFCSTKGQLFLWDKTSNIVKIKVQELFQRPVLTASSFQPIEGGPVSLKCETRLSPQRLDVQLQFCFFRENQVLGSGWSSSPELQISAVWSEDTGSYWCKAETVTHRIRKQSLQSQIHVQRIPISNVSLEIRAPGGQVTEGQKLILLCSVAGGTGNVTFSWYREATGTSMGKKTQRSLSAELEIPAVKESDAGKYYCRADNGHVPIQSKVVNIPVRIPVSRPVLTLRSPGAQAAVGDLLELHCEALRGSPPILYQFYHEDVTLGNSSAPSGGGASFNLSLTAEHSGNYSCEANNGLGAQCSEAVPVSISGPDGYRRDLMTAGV
Protocol: Each Fc-fusion protein indicated on the top of the column was captured on ELISA plates using secondary antibody (goat anti-human IgG). After washing, 100 ng/50 μl/well of MAbs were added, followed by HRP-labeled goat anti-mouse IgG and TMBZ substrate. The signals in ELISA were normalized for the amounts of each Fc-fusion protein on the plates using HRP-goat anti-human Fc. The controls are MAbs 9E10 (anti-myc tag, IgG1), BerH2 (anti-CD30, IgG1), T408 (anti-CD30, IgG2a), T420 (anti-CD30, IgG2b) and HRP-goat anti-human Fc (1/2400 dilution). […] Two days after transfection, the cells were harvested and incubated with 200 ng/100 μl of each MAb, followed by PE-conjugated goat anti-mouse IgG F(ab′)2. […] In the positive control panels, the MAbs cross-reactive to other IRTAs were used. They are F26 (anti-IRTA1 and anti-IRTA2, IgG2b), F109 (anti-IRTA3, IgG2b), F47 (anti-IRTA4, IgG2a), and F69 (anti-IRTA5, IgG2a). BerH2 (anti-CD30, IgG1) was also used. “+” indicates more than 1.5-fold than that of the control; “++” indicates more than 10-fold mean fluorescence intensity than that of the negative control.
(§1) ELISA. In a typical indirect ELISA for the screening of hybridomas, microtiter plates (MaxiSorp; Nalge Nunc, Rochester, N.Y.) were coated with 100 ng/50 μl/well of goat anti-human IgG in phosphate buffered saline (PBS) for 2 hours at room temperature. Next, 50 ng/100 μl/well of IRTA2-Fc in blocking buffer (25% DMEM, 5% FBS, 25 mM HEPES, 0.5% bovine serum albumin, 0.1% sodium azide in PBS) was added to each well and incubated for 2 hours at room temperature. After washing with PBS containing 0.05% Tween 20, 50 μl of the hybridoma supernatants were added and incubated for 2 hours at room temperature. After washing, the bound MAbs were detected by a 2-hour incubation with horseradish peroxidase (HRP)-labeled goat anti-mouse IgG (Jackson ImmunoResearch, Grove, Pa.) followed by tetramethylbenzidine (TMB) substrate kit (Pierce, Rockford, Ill.). In some experiments, other IRTA-Fc fusion proteins were used instead of IRTA2-Fc.

[2] = target: T2, CD30-Fc fusion protein (human, UniProt P28908 19-385); assay: ELISA
T2 construct: extracellular domain; Negative control antigen; not shown: human IgG1 hinge and Fc of pRB-2k1-CD30
T2 sequence (looked up): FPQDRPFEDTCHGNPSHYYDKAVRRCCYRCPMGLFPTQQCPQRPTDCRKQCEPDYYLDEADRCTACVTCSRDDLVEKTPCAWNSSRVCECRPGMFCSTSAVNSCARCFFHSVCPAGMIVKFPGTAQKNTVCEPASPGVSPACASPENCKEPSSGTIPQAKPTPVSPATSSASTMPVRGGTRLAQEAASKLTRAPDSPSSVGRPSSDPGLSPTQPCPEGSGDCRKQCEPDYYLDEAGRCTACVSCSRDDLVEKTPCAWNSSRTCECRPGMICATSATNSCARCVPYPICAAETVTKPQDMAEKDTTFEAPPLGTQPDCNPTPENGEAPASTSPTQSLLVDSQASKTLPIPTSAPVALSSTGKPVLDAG

[3] = target: T3, IRTA2 extracellular domain-Fc fusion protein (human, UniProt Q96RD9 16-851); assay: equilibrium ELISA (Friguet)
T3 construct: extracellular domain; also called IRTA2-Fc; IRTA2-HFc; not shown: human IgG1 hinge and Fc
T3 sequence (looked up): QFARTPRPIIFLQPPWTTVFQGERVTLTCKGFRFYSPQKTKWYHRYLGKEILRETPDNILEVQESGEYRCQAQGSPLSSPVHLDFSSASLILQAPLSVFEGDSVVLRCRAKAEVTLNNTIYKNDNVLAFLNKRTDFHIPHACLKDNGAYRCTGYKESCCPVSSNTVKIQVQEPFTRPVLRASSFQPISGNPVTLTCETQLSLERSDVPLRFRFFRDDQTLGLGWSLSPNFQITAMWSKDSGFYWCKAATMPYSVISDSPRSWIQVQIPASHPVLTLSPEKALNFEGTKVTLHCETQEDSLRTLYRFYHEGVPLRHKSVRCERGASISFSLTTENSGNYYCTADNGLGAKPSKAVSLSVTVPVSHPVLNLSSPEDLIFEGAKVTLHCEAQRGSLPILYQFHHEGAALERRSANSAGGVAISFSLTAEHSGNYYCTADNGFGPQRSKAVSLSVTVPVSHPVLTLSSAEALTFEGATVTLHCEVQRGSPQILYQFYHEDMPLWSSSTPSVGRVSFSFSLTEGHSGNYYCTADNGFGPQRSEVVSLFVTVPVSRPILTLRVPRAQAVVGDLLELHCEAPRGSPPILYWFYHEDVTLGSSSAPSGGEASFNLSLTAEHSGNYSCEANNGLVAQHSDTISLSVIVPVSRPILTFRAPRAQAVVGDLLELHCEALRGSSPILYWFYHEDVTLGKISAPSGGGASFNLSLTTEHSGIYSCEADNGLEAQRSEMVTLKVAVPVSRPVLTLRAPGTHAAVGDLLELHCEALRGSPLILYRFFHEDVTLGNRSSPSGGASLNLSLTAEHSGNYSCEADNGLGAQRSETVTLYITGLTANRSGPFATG
Protocol: as §1
Affinity Determination. Affinities (dissociation constant, Kd) of the anti-IRTA2 MAbs to IRTA2-Fc were determined by ELISA as previously described (Friguet et al., J Immunol Methods 77:305-19, 1985). Briefly, each MAb was incubated with various concentrations of IRTA2-Fc at room temperature for 20 hours to reach equilibrium; then the amount of MAb that remains unbound at equilibrium was measured by the indirect ELISA as described above.

- binding result [1]: no binding
- binding result [2]: no binding
- Kd [3]: 1.2 nM
B1: F25 (antibody, IgG2a, V domains shown)
VH: EVQLQQSGPELVKPGTSVKMSCKASGYSFTGYFMNWMMQNHGKSLEWIGRINLYNGDTFYNQKFKDKATLTVDKSSNTVHMEFRSLASEDSAVYYCASSLYYFDYWGQGTTFTVSS
VL: DIVMTQSHKFMSTSVGDRVNITCKASQDVGTNVAWYQQKPGQSPKLLIYWASTRQTGVPDRFTGSGSGTDFTLTISNVQSEDLSDYFCQQYSSYPLTFGAGTKLELKR
notes: mouse hybridoma MAb, IgG2a, kappa; also called MAb F25; biotin-MAb F25
